The source of these data is US20140175018A1 (published 2014).

One assay addresses T1, hCCR2b (human, UniProt P41597 1-374).
T1 chain: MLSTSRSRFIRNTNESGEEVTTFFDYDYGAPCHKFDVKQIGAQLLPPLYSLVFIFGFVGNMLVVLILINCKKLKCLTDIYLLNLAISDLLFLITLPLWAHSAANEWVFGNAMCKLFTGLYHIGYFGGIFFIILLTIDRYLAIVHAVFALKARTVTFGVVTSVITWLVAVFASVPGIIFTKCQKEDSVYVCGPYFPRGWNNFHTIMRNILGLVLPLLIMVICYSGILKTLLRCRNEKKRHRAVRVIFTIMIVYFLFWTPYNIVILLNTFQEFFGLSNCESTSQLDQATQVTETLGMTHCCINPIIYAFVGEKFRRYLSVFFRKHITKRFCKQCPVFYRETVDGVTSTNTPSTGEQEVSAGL
The assay is described as follows: cell-based or functional assay.

Assay [1] deals with T2, chemokine (C-C motif) receptor 4 (CCR4) (human, UniProt P51679 1-360).
T2 sequence (looked up): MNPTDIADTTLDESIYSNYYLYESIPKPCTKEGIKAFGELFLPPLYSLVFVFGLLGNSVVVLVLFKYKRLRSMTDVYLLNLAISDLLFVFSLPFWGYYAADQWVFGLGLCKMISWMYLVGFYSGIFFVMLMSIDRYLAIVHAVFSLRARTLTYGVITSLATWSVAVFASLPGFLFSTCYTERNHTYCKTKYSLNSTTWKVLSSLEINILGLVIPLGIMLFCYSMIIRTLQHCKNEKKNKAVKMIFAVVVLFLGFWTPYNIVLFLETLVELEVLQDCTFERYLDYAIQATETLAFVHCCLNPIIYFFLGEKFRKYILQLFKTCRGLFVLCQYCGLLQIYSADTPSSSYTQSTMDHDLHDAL
Briefly: cell-based or functional assay.

For assay [2], the target named is T3, chemokine (C-C motif) receptor 7 (CCR7) (human, UniProt P32248 25-378).
T3 sequence (looked up): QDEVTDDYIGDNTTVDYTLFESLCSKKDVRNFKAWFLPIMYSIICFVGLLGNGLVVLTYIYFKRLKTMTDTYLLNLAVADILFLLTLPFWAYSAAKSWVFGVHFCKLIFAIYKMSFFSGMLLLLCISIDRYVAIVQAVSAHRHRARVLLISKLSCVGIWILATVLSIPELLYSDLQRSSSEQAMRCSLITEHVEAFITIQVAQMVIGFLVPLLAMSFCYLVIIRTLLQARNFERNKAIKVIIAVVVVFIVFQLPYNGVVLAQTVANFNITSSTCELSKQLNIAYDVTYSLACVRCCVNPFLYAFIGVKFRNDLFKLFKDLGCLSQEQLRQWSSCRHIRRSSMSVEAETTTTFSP
The assay is described as follows: cell-based or functional assay.

Assay [3] has as its target T4, chemokine (C-C motif) receptor 5 (CCR5) (human, UniProt P51681 1-352). The assay is described as follows: cell-based or functional assay.
In assay [4] the target is T4, chemokine (C-C motif) receptor 5 (CCR5). The assay is described as follows: blood passed through chemokine-coupled column; flow cytometry before and after. On the technique in general: Flow cytometry measures light scatter and fluorescence of single cells or particles in a stream.
Assay [5] deals with T5, chemokine (C-C motif) receptor 1 (CCR1) (human, UniProt P32246 1-355).
T5 construct: whole, on cells
T5 sequence (looked up): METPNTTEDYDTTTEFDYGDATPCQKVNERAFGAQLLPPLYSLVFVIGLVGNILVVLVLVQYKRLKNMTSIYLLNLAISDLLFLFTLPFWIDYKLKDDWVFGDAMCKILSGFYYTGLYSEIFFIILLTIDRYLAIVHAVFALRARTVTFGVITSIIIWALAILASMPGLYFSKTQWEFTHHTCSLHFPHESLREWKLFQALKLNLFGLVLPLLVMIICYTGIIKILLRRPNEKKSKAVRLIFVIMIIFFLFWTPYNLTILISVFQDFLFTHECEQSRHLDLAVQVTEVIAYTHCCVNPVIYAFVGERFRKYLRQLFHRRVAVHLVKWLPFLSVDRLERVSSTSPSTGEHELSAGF
The assay is described as above.

For assay [6], the target named is T6, chemokine (C-C motif) receptor 3 (CCR3) (human, UniProt P51677 1-355).
T6 construct: whole, on cells; also called hCCR3
T6 sequence (looked up): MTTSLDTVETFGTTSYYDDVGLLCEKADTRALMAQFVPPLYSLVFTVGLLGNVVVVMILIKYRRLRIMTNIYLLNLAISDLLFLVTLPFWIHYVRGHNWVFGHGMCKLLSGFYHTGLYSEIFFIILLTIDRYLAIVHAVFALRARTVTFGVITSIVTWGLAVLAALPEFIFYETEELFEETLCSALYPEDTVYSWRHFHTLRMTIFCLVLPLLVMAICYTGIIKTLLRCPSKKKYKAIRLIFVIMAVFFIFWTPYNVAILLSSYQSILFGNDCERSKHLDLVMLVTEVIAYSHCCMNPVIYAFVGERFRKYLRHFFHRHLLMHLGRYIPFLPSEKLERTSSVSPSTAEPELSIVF
Briefly: flow cytometry; eotaxin binding compared with anti-CCR3 staining of neutrophils/eosinophils.

Assay [7] deals with T7, chemokine (C-C motif) receptor 9 (CCR9) (human, UniProt P51686 1-369).
T7 sequence (looked up): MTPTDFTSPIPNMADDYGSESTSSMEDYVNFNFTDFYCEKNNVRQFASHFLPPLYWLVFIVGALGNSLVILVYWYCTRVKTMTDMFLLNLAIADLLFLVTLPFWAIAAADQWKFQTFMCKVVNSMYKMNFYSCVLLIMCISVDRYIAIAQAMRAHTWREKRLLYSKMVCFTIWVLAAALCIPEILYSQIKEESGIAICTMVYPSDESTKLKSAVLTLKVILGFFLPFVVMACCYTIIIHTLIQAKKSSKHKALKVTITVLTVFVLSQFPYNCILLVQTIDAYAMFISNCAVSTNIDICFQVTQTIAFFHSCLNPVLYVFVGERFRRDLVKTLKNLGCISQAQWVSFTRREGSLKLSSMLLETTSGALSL
Briefly: cell-based or functional assay.

Assay [8] addresses T7, chemokine (C-C motif) receptor 9 (CCR9). Briefly: flow cytometry; labelled chemokine on fixed blood leukocytes.

Bridge positions count the residues as written; N and C are the ends. Square brackets hold non-standard residues; d marks the D form. Side chains are listed from the residue outwards. * marks the point of attachment. Biotin = O=C1N[C@H]2[C@H](CS[C@H]2CCCCC(=O)*)N1; pGlu = O=C1CC[C@@H](C(=O)O)N1; Nle = CCCC[C@H](N)C(=O)O; PEG = not defined here

T4 sequence (P51681 whole entry): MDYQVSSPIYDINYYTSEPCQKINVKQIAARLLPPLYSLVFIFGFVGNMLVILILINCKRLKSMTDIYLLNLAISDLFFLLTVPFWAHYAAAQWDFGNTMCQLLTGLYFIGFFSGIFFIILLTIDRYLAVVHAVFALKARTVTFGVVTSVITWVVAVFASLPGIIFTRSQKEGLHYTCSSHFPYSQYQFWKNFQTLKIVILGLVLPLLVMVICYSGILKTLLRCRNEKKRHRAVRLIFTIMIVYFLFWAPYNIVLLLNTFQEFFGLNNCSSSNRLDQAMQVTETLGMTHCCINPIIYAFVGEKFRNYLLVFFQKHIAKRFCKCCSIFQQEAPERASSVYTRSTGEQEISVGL

B1: recombinant native MCP-2 (ligand, UniProt P80075 24-99, looked up)
chain: QPDSVSIPITCCFNVINRKIPIQRLESYTRITNIQCPKEAVIFKTKRGKEVCADPKERWVRDSMKHLDQIFQNLKP
For B1, the “EC50 (partial agonist, Aequorin assay)” value with hCCR2b is 23.5 nM.

B2: biotinMDC (CCL22): MDC derivatised at Lys(66) with PEG-Biotin (ligand)
chain: GPYGANMEDSVCCRDYVRYRLPLRVVKHFYWTSDSCPRPGVVLLTFRDKEICADPRVPWVKMILNK([PEG-Biotin])LSQ-NH2
modifications: disulfide 12-36, 13-52; reading uncertain
Turning to B2, in assay [1], the “EC50 (agonist activity, Aequorin assay)” value was 4.5 nM.

B3: biotinMIP-3b (CCL19): MIP-3b derivatised at Lys(78) with Biotin (ligand)
chain: GTNDAEDCCLSVTQKPIPGYIVRNFHYLLIKDGCRVPAVVFTTLRGRQLCAPPDQPWVERIIQRLQRTSAKMKRRSSX
modifications: X78 = K(Biotin), an additional C-terminal lysine; C-terminal amide
As to B3, the “EC50 (agonist activity, Aequorin assay)” value in assay [2] turned out to be 11 nM.

B4: biotinRANTES (CCL5): RANTES derivatised at Lys(67) with Biotin (ligand)
chain: SPYSSDTTPCCFAYIARPLPRAHIKEYFYTSGKCSNPAVVFVTRKNRQVCANPEKKWVREYINSLEK(Biotin)S-OH
modifications: disulfide 10-34, 11-50
notes: also called bRANTES; biotinylated RANTES
As to B4, the “EC50 (agonist activity, Aequorin assay)” value in assay [3] came out at 0.5 nM. The “percent reduction of chemokine receptor-expressing cells (CCR1, 3 or 5, not told apart)” value in assay [4] and in assay [5] was around 20% each time.

B5: biotinylated and Alexa647 Fluor labeled eotaxin (Almac Sciences) (ligand)
chain: not shown
modifications: biotinylated and Alexa647 Fluor labeled (sites not given)
B5: the binding result in assay [6] is recorded as “binds”.

B6: biotinTECK (Met to Nleu substitution): TECK derivatised at the epsilon-amino side chain of Lys72 with PEG-Biotin (ligand)
chain: [pGlu]GVFEDCCLAYHYPIGWAVLRRAWTYRIQEVSGSCNLPAAIFYLPKRHRKVCGNPKSREVQRA[Nle]KLLDARNK([PEG-Biotin])VF-OH
modifications: disulfide 7-35, 8-52; reading uncertain
As for B6, the “EC50 (agonist activity, Aequorin assay)” value in [7] was determined as 63.6 nM.

B7: Biotinylated CCL25 (Almac Sciences) (ligand, UniProt O15444 24-97, looked up)
chain: QGVFEDCCLAYHYPIGWAVLRRAWTYRIQEVSGSCNLPAAIFYLPKRHRKVCGNPKSREVQRAMKLLDARNKVF
modifications: biotinylated (site not stated); for the flow cytometry tests also Alexa647 Fluor labeled
notes: also called biotinylated and Alexa647 Fluor labeled CCL25; CCL25-coated sepharose beads
For the molecule B7, in [8], the “percent of CD4+ lymphocytes bound (Crohn's patient)” value is around 90%, the “percent of CD8+ lymphocytes bound (Crohn's patient)” value was around 80% and the “percent of monocytes bound (Crohn's patient)” value was around 90%.
